This assay addresses human C5a receptor (C5aR) (human) (UniProt P21730). Description: cell-based or functional assay.
Sequence of UniProt P21730 (P21730 whole entry): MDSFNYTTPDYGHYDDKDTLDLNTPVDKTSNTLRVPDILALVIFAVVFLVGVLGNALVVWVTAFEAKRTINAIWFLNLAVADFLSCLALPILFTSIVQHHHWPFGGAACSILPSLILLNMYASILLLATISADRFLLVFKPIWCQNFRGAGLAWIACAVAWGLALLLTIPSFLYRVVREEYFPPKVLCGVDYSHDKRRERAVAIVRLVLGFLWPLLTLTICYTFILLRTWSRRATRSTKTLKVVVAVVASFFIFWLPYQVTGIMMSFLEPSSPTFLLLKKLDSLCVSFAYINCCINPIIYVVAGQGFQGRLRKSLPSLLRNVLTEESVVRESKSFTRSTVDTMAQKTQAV

The substance “CHIPS variant clone 376 (ADC-1004; CHIPS ΔN/C format) (from UniProt A6QIG7 31-113)” had a C5aR blocking activity relative to wt CHIPS1-121 (% of wt CHIPS1-121) above 25 and a Chemotaxis IC50 of 0.5 µg/mL. The substance “CHIPS ΔN/C (CHIPS31-113) (from UniProt A6QIG7 59-141)” showed a Chemotaxis IC50 of 0.5 µg/mL. In turn, “Wild-type (Wt) CHIPS1-121 (from UniProt A6QIG7 29-149)” displayed a Chemotaxis IC50 of 0.1 µg/mL.

These data come from patent US20120077730A1.
